Data on 6 molecules can be found in patent publication US20260232759A1, “PEPTIDES THAT INHIBIT INFECTION BY SARS-COV-2, THE VIRUS THAT CAUSES COVID-19 DISEASE” (Wisconsin Alumni Research Foundation, priority 2021, published 2026).

The chains are these.
B1: α/β-SARS2 HRC QE-6 (peptide)
peptide: DISQINASVVNIEYEIKKLEEVAXKLEESLIDLQELGSGSGC
modifications: not fully specified (C-terminus); also: α/β-peptide, β-residue positions not given here, alias: peg4 chol conjugate
B2: α/β-SARS2 HRC QE-8 (peptide)
peptide: DISQINASVVNIEYEIXKLEEVAXKLEESLIDLQELGSGSGC
modifications: not fully specified (C-terminus); also: α/β-peptide, β-residue positions not given here, alias: peg4 chol conjugate
B3: α/β-SARS2 HRC QE-5 (peptide)
peptide: DISQINASVVNIEYEIXKLEEVAKKLEESLIDLQELGSGSGC
modifications: not fully specified (C-terminus); also: α/β-peptide, β-residue positions not given here, alias: peg4 chol conjugate
B4: α/β-SARS2 HRC QE-7 (peptide)
peptide: DISQINASVVNIEYEIXKLEEVAXKLEESLIDLQELGSGSGC
modifications: not fully specified (C-terminus); also: α/β-peptide, β-residue positions not given here, alias: peg4 chol conjugate
B5: α/β-SARS2 HRC QE-17 (peptide)
peptide: DISQINASVVNIEYEIXKLEEVAXKLEESLIDLQELGSGSGC
modifications: not fully specified (C-terminus); also: α/β-peptide, β-residue positions not given here
B6: α/β-SARS2 HRC QE-15 (peptide)
peptide: DISQINASVVNIEYEIXKLEEVAXKLEESLIDLQELGSGSGC
modifications: not fully specified (C-terminus); also: α/β-peptide, β-residue positions not given here

No end group written: not given here.

One experiment addresses SARS-CoV-2 Spike protein (SARS-CoV-2), P0DTC2. Description: cell-based or functional assay.
On to B1, for which the inhibition of S-mediated cell-cell fusion (β-Gal complementation), IC50 was found to be 0.02 µM and the inhibition of S-mediated cell-cell fusion (β-Gal complementation), IC90 was 0.1 µM. As to B2, the inhibition of S-mediated cell-cell fusion (β-Gal complementation), IC50 worked out at 0.1 µM.

B3 displayed an inhibition of S-mediated cell-cell fusion (β-Gal complementation), IC50 of 1 µM. In turn, B4 returned an inhibition of S-mediated cell-cell fusion (β-Gal complementation), IC50 of 0.02 µM and an inhibition of S-mediated cell-cell fusion (β-Gal complementation), IC90 of 0.1 µM.

A further experiment shares this target. Description: cell-based or functional assay. The source holds these as a separate data set.
Turning to B5, the inhibition of S-mediated cell-cell fusion (β-Gal complementation), IC50 is 0.01 µM. The same measure, in the same setting: under B6 stands 0.05 µM. Same read-out and setting: under B4 stands 0.01 µM.
